Our source for the binding result and Kd values is article PMC7605794.

Assay in all cases: ITC
Series [1] has as its target T1, NRKRISN peptide (spike RBD) (SARS-CoV-2, UniProt P0DTC2).
T1 chain: NRKRISN

Series [2] has as its target T2, HRFYRLAN peptide (RNA dependent RNA polymerase) (SARS-CoV-2, UniProt P0DTD1).
T2 chain: HRFYRLAN

For series [3], the target named is T3, YRLFRK peptide (spike RBD) (SARS-CoV-2, UniProt P0DTC2).
T3 chain: YRLFRK

In the case of GGTTGGTGTGGTTGG (structured_DNA) [BC 007], the binding result in series [1] is reported as “no binding”. Besides, the values for the equilibrium dissociation constant (Kd) in series [2] and in series [3] were 54.7 ± 0.6 µM and 86.7 ± 1.2 µM, respectively.

The term Kd denotes a measure of binding affinity in units of concentration. A lower Kd goes with tighter binding.
